Measurements published in patent publication US20030158102A1 (MAYO FOUNDATION FOR MEDICAL EDUCATION AND RESEARCH, published 2003).
Residue numbers refer to the chain shown, from its start.

B1: ICOSIg mutant Ser76Glu (Fc fusion)
chain: EINGSANYEMFIFHNGGVQILCKYPDIVQQFKMQLLKGGQILCDLTKTKGSGNTVEIKSLKFCHSQLSNNSVSFFLYNLDHSHANYYFCNLSIFDPPPFKVTLTGGYLHIYESQLCCQLK
notes: Built on ICOSIg cDNA; also called Ser76Glu mutant; Ser76Glu protein; not shown: CH2-CH3 portion of human IgG1
B2: wild-type ICOSIg (extracellular domain of human ICOS fused to the CH2-CH3 portion of human IgG1) (Fc fusion)
chain: B1 chain with E56S
notes: Made in COS cells; used as concentrated supernatant or purified; also called human ICOSIg; not shown: CH2-CH3 portion of human IgG1
B3: ICOSIg homologue replacement mutant RP49-52 (Fc fusion)
chain: B1 chain with Q29R, Q30E, K32R, E56S
notes: not shown: CH2-CH3 portion of human IgG1
B4: ICOSIg mutant Asp64Ser (Fc fusion)
chain: B1 chain with D44S, E56S
notes: Built on ICOSIg cDNA; not shown: CH2-CH3 portion of human IgG1
B5: ICOSIg mutant Asp115Ser (Fc fusion)
chain: B1 chain with E56S, D95S
notes: as for B4
B6: ICOSIg mutant Gln49Ser (Fc fusion)
chain: B1 chain with Q29S, E56S
notes: as for B4
B7: ICOSIg mutant Gln50Ser (Fc fusion)
chain: B1 chain with Q30S, E56S
notes: as for B4
B8: ICOSIg mutant Lys52Ser (Fc fusion)
chain: B1 chain with K32S, E56S
notes: as for B4
B9: ICOSIg mutant Lys67Ser (Fc fusion)
chain: B1 chain with K47S, E56S
notes: as for B4
B10: ICOSIg mutant Lys69Ser (Fc fusion)
chain: B1 chain with K49S, E56S
notes: as for B4
B11: ICOSIg mutant Phe51Ser (Fc fusion)
chain: B1 chain with F31S, E56S
notes: as for B4
B12: ICOSIg mutant Phe114Ser (Fc fusion)
chain: B1 chain with E56S, F94S
notes: as for B4
B13: ICOSIg mutant Phe119Ser (Fc fusion)
chain: B1 chain with E56S, F99S
notes: as for B4
B14: ICOSIg mutant Pro117Ser (Fc fusion)
chain: B1 chain with E56S, P97S
notes: Built on ICOSIg cDNA; also called Pro117Ser mutant; not shown: CH2-CH3 portion of human IgG1
B15: ICOSIg homologue replacement mutant RP64-78 (Fc fusion)
chain: EINGSANYEMFIFHNGGVQILCKYPDIVQQFKMQLLKGGQILCVVYGNYSQQLQVYSKSLKFCHSQLSNNSVSFFLYNLDHSHANYYFCNLSIFDPPPFKVTLTGGYLHIYESQLCCQLK
notes: as for B3

Target: T1, B7-H2Ig fusion protein (extracellular domain of human B7-H2 linked to an Ig portion); which one not said for … (human, UniProt O75144 19-256)
T1 sequence (looked up): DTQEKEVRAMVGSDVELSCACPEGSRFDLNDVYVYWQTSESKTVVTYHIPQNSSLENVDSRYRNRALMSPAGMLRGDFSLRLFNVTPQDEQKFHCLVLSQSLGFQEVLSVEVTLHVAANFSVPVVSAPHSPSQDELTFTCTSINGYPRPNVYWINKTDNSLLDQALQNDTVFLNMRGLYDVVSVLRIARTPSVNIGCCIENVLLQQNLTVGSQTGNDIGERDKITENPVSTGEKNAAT
Assay: cell-based or functional assay

Binder	T cell proliferation ([3H]-thymidine) costimulated by immobilized B7-H2Ig with anti-CD3 mAb
B1	~10 fold (against wild-type ICOSIg)

Target: T2, B7-H2mIg (extracellular domain of human B7-H2 linked to mouse IgG2a) (human; mouse, UniProt O75144 19-256)
T2 construct: extracellular domain; also called B7-H2Ig (mouse Ig); B7-H2Ig; not shown: mouse IgG2a
T2 sequence (looked up): T1 sequence (looked up)
Assay: capture ELISA, B7-H2mIg coated, anti-human IgG-HRP detection
Experimental: The ability of ICOSIg mutants to bind B7-H2 was measured using capture ELISA. Recombinant B7-H2mIg fusion proteins were coated on microtiter plates at 5 μg/ml and incubated overnight at 4° C. As described above, wells were blocked and then washed with PBS-Tween, and COS cell culture media was added and incubated for 2 hours at room temperature. HRP-conjugated goat anti-human IgG was added after washing, followed by TMB substrate and H₂SO₄, and absorbance was measured at 405 nm.
^a The regions, nucleotides, or amino acids in front of the slash were replaced with the corresponding regions, nucleotides, or amino acids after the slash. ^b Nucleotides are numbered from the A of the initiation codon. ^c Amino acids are numbered from the initiation methionine. ^d Specific binding activities were determined for each of the indicated fusion proteins. The concentration of a fusion protein required to give an arbitrary A405, which is the same as that of wild type ICOSIg, was determined from the linear region of binding curves and expressed as a percentage of specific binding activity of ICOSIg. Values represent the average of three determinations from each binding curve. The results are representative of three experiments.

Binder	B7-H2 Binding (specific binding activity as percentage of ICOSIg)
B2	100 % of wild type ICOSIg
B3	9 % of wild type ICOSIg
B4	6 % of wild type ICOSIg
B5	< 0.1 % of wild type ICOSIg
B6	33 % of wild type ICOSIg
B7	6 % of wild type ICOSIg
B8	200 % of wild type ICOSIg
B9	< 0.1 % of wild type ICOSIg
B10	3 % of wild type ICOSIg
B11	< 0.1 % of wild type ICOSIg
B12	< 0.1 % of wild type ICOSIg
B13	< 0.1 % of wild type ICOSIg
B14	< 0.1 % of wild type ICOSIg
B1	300 % of wild type ICOSIg
B15	< 0.1 % of wild type ICOSIg

Target: T3, human B7-H2 expressed on transfected CHO cells (human, UniProt O75144 19-302)
T3 construct: whole, on cells; also called B7-H2+ CHO cells
T3 sequence (looked up): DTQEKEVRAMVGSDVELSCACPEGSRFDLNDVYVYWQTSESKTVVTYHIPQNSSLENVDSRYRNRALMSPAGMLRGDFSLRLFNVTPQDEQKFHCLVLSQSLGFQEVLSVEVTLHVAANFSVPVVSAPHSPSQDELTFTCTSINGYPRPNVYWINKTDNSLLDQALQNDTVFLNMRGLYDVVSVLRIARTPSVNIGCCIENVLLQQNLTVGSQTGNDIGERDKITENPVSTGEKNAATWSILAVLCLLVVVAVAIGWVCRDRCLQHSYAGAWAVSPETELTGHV
Assay: FACS on B7-H2+ CHO cells

Binder	binding result
B5	no binding
B9	no binding
B11	no binding
B12	no binding
B13	no binding
B14	no binding

Target: T3, human B7-H2 expressed on transfected …
Assay: FACS on CHO cells transfected to express B7-H2
Experimental: Flow cytometry: B7-H2⁺ CHO cells (1×10⁵ cells per sample) were incubated on ice for 45 minutes, in a 1:1 mixture of fluorescence activated cell sorter (FACS) buffer (3% FBS and 0.02% NaN₃ in PBS):COS cell culture media containing ICOSIg fusion proteins. The B7-H2Ig fusion protein was used as a negative control. The cells were washed and further incubated with fluorescein isothiocyanate (FITC)-conjugated goat anti-human IgG (BioSource, Camarillo, Calif.) on ice for 30 minutes. Fluorescence was analyzed on a FACScaliber flow cytometer (Becton Dickinson, Mountain View, Calif.) with Cell Quest software (Becton Dickinson).
Mutagenesis analysis of the interaction between ICOS and B7-H2: The conserved regions within ICOS were subjected to mutagenesis in order to analyze their importance for binding to B7-H2. […] These constructs were expressed as ICOSIg hybrid proteins in COS cells, and the concentrations of the mutant proteins in serum-free culture media was determined by sandwich ELISA using anti-human Ig mAbs (BD Pharmingen). […] The ability of each ICOSIg mutant to bind to B7-H2 was determined by sandwich ELISA using B7-H2Ig (mouse Ig) and anti-human Ig mAb (FIG. 3A), and also by FACS analysis of ICOSIg binding to CHO cells that were transfected to express B7-H2. […]

Binder	binding result
B15	no binding
